From US20160186156A1 (YEDA RESEARCH AND DEVELOPMENT, published 2016) come the findings set out here.

The target of this assay is T1, primary hexavalent scaffold CohII-C-A-CBM-T-G-F.
T1 chain: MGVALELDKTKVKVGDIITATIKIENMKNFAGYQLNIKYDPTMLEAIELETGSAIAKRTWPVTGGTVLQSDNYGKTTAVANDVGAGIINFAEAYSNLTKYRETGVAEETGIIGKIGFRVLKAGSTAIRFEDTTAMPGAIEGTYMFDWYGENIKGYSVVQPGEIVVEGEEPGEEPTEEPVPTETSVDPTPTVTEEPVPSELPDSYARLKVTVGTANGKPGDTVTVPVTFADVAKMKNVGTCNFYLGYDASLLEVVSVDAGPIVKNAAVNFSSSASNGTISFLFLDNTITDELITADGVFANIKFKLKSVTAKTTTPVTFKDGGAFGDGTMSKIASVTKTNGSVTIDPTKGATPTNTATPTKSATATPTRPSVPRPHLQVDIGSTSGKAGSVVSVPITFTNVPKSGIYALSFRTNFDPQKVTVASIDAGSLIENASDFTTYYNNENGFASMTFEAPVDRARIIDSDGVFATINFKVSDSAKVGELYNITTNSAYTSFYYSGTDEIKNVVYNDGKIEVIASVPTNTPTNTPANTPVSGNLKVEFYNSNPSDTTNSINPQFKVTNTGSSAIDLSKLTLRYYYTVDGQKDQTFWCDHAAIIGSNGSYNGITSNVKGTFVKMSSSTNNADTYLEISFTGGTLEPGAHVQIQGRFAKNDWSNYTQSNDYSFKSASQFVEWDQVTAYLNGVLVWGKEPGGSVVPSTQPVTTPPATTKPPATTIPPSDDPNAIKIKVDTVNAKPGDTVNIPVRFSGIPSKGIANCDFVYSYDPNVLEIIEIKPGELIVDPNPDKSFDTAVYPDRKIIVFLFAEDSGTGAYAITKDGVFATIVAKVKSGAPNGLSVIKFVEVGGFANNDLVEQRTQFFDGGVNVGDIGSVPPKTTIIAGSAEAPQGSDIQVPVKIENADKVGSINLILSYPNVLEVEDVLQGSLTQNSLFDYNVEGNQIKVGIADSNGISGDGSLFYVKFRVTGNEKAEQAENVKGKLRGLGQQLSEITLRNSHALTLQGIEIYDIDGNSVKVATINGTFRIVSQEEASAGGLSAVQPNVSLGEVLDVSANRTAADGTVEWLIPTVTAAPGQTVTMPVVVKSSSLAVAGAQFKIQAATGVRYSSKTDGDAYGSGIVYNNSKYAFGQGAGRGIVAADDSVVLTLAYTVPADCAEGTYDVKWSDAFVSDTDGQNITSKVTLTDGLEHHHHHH
As to the kind of experiment: cell-based or functional assay.

B1: adaptor scaffold CBM-A-B-T-DockII (other)
chain: MANTPVSGNLKVEFYNSNPSDTTNSINPQFKVTNTGSSAIDLSKLTLRYYYTVDGQKDQTFWCDHAAIIGSNGSYNGITSNVKGTFVKMSSSTNNADTYLEISFTGGTLEPGAHVQIQGRFAKNDWSNYTQSNDYSFKSASQFVEWDQVTAYLNGVLVWGKEPGGSVVPSTQPVTTPPATTKPPATTKPPATTIPPSGSDLQVDIGSTSGKAGSVVSVPITFTNVPKSGIYALSFRTNFDPQKVTVASIDAGSLIENASDFTTYYNNENGFASMTFEAPVDRARIIDSDGVFATINFKVSDSAKVGELYNITTNSAYTSFYYSGTDEIKNVVYNDGKIEVIASPTPTQSATPTVTPSATATPTQSATPTVTPSSPGNKMKIQIGDVKANQGDTVIVPITFNEVPVMGVNNCNFTLAYDKNIMEFISADAGDIVTLPMANYSYNMPSDGLVKFLYNDQAQGAMSIKEDGTFANVKFKIKQSAAFGKYSVGIKAIGSISALSNSKLIPIESIFKDGSITVTNTPTNTISVTPTNNSTPTNNSTPKPNPLSDGVVVEIGKVTGSVGTTVEIPVYFRGVPSKGIANCDFVFRYDPNVLEIIGIDPGDIIVDPNPTKSFDTAIYPDRKIIVFLFAEDSGTGAYAITKDGVFAKIRATVKSSAPGYITFDEVGGFADNDLVEQKVSFIDGGVNVGNATRSTNKPVIEGYKVSGYILPDFSFDATVAPLVKAGFKVEIVGTELYAVTDANGYFEITGVPANASGYTLKISRATYLDRVIANVVVTGDTSVSTSQAPIMMWVGDIVKDNSINLLDVAEVIRCFNATKGSANYVEELDINRNGAINMQDIMIVHKHFGATSSDYDAQLEHHHHHH
Regarding B1, the “wheat straw degradation, reducing sugars released after 48 hours incubation at 50 C (FIG. 5, Column 7 against Columns 4 and 6)” value was approximately 2 fold.
